Data published in US10646540B2, “Peptide inhibitors of twist” (City of Hope, priority 2016, dated 2020).
“Also recorded” adds a separate entry of the source. Ends that are not written are not given here. Peptide text beside a SMILES is read from it. * marks the point of attachment. Cbz = O=C(OCc1ccccc1)*

Tests used:
[1] = target: T1, TWIST1-RELA binding (Homo sapiens, UniProt Q15672); assay: Co-immunoprecipitation with RELA pulldown in transfected HEK-293 cells; settings: increasing GFP-WR expression, total GFP held constant with control GFP
T1 construct: The cloning of TWIST1 into the pcDNA4-MycHis vector has been described previously [14]; The wild type RELA gene was also cloned into pcDNA4-MycHis; expressed in transfected cells; host or cells: HEK-293
T1 sequence (Q15672 1-202): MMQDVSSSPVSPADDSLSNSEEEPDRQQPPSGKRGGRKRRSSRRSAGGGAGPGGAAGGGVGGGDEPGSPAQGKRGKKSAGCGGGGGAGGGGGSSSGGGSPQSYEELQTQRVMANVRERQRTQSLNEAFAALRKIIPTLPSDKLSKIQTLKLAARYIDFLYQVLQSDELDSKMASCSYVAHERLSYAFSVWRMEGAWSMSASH
Excerpt: (§1) In order to create a competitive inhibitor for TWIST1-RELA binding, the WR domain from TWIST1 was fused to GFP. To achieve this, PCR was used to amplify the final 63 nucleotides of the TWIST1 gene (including stop codon) and add 5′ XhoI and 3′ BamHI restriction sites. The PCR fragment and the pEGFP-C3 vector were subjected to XhoI-BamHI double digest (New England BioLabs, Ipswich, Mass.) and the two were ligated together. GFP lacking the WR domain was used as a control, and includes residues at the C-terminus encoded by the multiple cloning site of the vector. As a result, the molecular weights of the two GFP proteins are indistinguishable on a western blot. […]
(§2) HEK-293 cells were plated at 500,000 cells per well, in 2 mL normal medium, in a 6 well plate and allowed to adhere. […] Cell pellets were lysed in RIPA buffer, and protein concentration was determined by BCA Protein Assay (Thermo Fisher, Waltham, Mass.). […]
(§3) Protein was run on 4% stacking, 10% resolving polyacrylamide gels and transferred to PVDF membrane (GE Healthcare Bio-Sciences, Pittsburgh, Pa.) on a Trans-Blot SD Semi-Dry Transfer Cell (Bio-Rad, Hercules, Calif.). […] Protein was detected using FemtoGlow chemiluminescent substrate (Michigan Diagnostics, Royal Oak, Mich.) and the Pxi4 imager (Syngene, Frederick, Md.). Quantitation was performed using the accompanying GeneTools software.

[2] = target: T2, RELA (Homo sapiens, UniProt Q04206); assay: Co-immunoprecipitation with GFP pulldown in transfected HEK-293 cells; type: binding; settings: data not shown
T2 construct: The wild type RELA gene was also cloned into pcDNA4-MycHis; expressed in transfected cells; host or cells: HEK-293
Excerpt: as §1, §2, §3

[3] = target: T3, TWIST1 (Homo sapiens, UniProt Q15672); assay: as above; type: binding; settings: increasing GFP-WR expression
T3 construct: The cloning of TWIST1 into the pcDNA4-MycHis vector has been described previously [14]; expressed in transfected cells; host or cells: HEK-293
T3 sequence (Q15672 1-202): T1 sequence (Q15672 1-202)
Excerpt: as §1, §2, §3

[4] = system: IL-8 promoter; assay: Dual luciferase assay, firefly luciferase under control of the IL-8 promoter, in Ovcar4 cells; type: cell-based
Procedure: HEK-293 cells were grown in McCoy's 5A medium supplemented with 10% fetal bovine serum (FBS) and 1% penicillin/streptomycin (P/S). Ovcar4 cells were grown in RPMI medium with 10% FBS and 1% P/S. All cells were maintained at 37° C. and 90% humidity in a tissue culture incubator with 5% CO2 atmosphere. Cells were passaged every 2-4 days as they became confluent, using 0.25% trypsin. Where indicated, cells were transfected using 5 μL per well Lipofectamine 2000 (Life Technologies, Carlsbad, Calif.) in a total of 2 mL per well of OptiMEM low serum medium (Life Technologies). For proteasome inhibition studies, MG132 was added to cells in normal medium four hours after transfection and left on overnight. 5 μM was used for western studies, and 1 μM was used for luciferase assays. […]
Ovcar4 cells were plated at 50,000-75,000 cells per well, in 500 μL RPMI, in a 24 well plate and allowed to adhere overnight. […] The day after transfection, luciferase expression was quantified using the Dual Luciferase Assay kit (Promega, Madison, Wis.) according to the manufacturer instructions.
Western blots were quantified using GeneTools software. Data were graphed and analyzed in Microsoft Excel and GraphPad Prism 6, respectively. […] Luciferase assays were analyzed using one-way ANOVA with correction for multiple comparisons. […]

[5] = target: T3, TWIST1; assay: Cell fractionation and western blot of TWIST1 and GFP in HEK-293 cells; type: cell-based
Procedure: HEK-293 cells were grown in McCoy's 5A medium supplemented with 10% fetal bovine serum (FBS) and 1% penicillin/streptomycin (P/S). Ovcar4 cells were grown in RPMI medium with 10% FBS and 1% P/S. All cells were maintained at 37° C. and 90% humidity in a tissue culture incubator with 5% CO2 atmosphere. Cells were passaged every 2-4 days as they became confluent, using 0.25% trypsin. Where indicated, cells were transfected using 5 μL per well Lipofectamine 2000 (Life Technologies, Carlsbad, Calif.) in a total of 2 mL per well of OptiMEM low serum medium (Life Technologies). For proteasome inhibition studies, MG132 was added to cells in normal medium four hours after transfection and left on overnight. 5 μM was used for western studies, and 1 μM was used for luciferase assays.
as §1, with “blot. To achieve equal expression of GFP-WR compared to unmodified GFP, it was necessary to transfect cells with three-fold more GFP-WR plasmid versus GFP. A one to one ratio was sufficient for CoIP illustrated in FIG. 4C.” for “blot.”
Protein was run on 4% stacking, 10% resolving polyacrylamide gels and transferred to PVDF membrane (GE Healthcare Bio-Sciences, Pittsburgh, Pa.) on a Trans-Blot SD Semi-Dry Transfer Cell (Bio-Rad, Hercules, Calif.). […] Protein was detected using FemtoGlow chemiluminescent substrate (Michigan Diagnostics, Royal Oak, Mich.) and the Pxi4 imager (Syngene, Frederick, Md.). […]

T2 sequence (Q04206 whole entry): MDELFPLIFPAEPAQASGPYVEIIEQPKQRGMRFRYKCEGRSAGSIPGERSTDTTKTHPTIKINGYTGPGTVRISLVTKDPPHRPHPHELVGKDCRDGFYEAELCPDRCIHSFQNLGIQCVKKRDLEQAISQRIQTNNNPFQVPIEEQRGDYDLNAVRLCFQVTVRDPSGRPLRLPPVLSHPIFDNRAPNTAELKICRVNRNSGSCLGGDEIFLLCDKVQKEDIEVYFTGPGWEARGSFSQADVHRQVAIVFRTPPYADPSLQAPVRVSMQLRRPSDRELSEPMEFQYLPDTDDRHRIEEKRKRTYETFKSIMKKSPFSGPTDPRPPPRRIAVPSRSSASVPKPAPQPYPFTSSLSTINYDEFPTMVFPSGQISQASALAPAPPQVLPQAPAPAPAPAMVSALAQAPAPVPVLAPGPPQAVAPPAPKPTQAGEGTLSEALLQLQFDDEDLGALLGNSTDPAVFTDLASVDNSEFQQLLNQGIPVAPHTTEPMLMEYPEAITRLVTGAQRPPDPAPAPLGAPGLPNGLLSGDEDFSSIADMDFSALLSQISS

Molecule | TWIST1 co-precipitated with RELA (TWIST1-RELA binding) [1] | RELA co-precipitated with GFP [2] | TWIST1 co-precipitated with GFP [3] | IL-8 promoter driven FFluc expression (normalized to Renilla luciferase) ([4]; increasing dose of GFP-WR, Ovcar4 cells co-transfected with TWIST1 and RELA) | proportion of TWIST1 signal found in the cytoplasmic fraction ([5]; increasing GFP-WR transfection, western blot of fractionated cells) | absolute levels of TWIST1 and GFP in cytoplasmic and nuclear fractions ([5]; increasing amount of GFP-WR transfected) | IL-8 promoter activity (FFluc expression) after proteasome inhibition ([4]; MG132 1 μM overnight, cells expressing GFP-WR) | levels of TWIST1 and GFP in the cytoplasmic fraction after proteasome inhibition ([5]; MG132 5 μM overnight, cells expressing GFP-WR)
GFP-WR: fusion protein of GFP and the 20 amino acid WR domain of TWIST1, expressed from pEGFP-C3 as competitive inhibitor of TWIST1-RELA binding (LELSYAFSVWRMEGAWSMSASH; also: fused to GFP) | reduced in a dose-dependent manner; also recorded: reduced in a dose dependent fashion | only trace amounts | more TWIST1 co-precipitated; also recorded: co-precipitated to a greater degree | dose dependent drop; also recorded: dose-dependent reduction | slight increase; also recorded: mild increase | decreased |  | 
CC(C)C[C@@H](C=O)NC(=O)[C@H](CC(C)C)NC(=O)[C@H](CC(C)C)NC(=O)OCc1ccccc1 [MG132, reference compound] (Cbz-Leu-Leu-Leu-aldehyde) |  |  |  |  |  |  | increases; also recorded: partial rescue | partially rescue
